The numbers were not newly measured in paper PMC3295331, which cites them from elsewhere.

In this data set the target is Cav3.1 (UniProt O54898).
Chain of UniProt O54898 (O54898 whole entry): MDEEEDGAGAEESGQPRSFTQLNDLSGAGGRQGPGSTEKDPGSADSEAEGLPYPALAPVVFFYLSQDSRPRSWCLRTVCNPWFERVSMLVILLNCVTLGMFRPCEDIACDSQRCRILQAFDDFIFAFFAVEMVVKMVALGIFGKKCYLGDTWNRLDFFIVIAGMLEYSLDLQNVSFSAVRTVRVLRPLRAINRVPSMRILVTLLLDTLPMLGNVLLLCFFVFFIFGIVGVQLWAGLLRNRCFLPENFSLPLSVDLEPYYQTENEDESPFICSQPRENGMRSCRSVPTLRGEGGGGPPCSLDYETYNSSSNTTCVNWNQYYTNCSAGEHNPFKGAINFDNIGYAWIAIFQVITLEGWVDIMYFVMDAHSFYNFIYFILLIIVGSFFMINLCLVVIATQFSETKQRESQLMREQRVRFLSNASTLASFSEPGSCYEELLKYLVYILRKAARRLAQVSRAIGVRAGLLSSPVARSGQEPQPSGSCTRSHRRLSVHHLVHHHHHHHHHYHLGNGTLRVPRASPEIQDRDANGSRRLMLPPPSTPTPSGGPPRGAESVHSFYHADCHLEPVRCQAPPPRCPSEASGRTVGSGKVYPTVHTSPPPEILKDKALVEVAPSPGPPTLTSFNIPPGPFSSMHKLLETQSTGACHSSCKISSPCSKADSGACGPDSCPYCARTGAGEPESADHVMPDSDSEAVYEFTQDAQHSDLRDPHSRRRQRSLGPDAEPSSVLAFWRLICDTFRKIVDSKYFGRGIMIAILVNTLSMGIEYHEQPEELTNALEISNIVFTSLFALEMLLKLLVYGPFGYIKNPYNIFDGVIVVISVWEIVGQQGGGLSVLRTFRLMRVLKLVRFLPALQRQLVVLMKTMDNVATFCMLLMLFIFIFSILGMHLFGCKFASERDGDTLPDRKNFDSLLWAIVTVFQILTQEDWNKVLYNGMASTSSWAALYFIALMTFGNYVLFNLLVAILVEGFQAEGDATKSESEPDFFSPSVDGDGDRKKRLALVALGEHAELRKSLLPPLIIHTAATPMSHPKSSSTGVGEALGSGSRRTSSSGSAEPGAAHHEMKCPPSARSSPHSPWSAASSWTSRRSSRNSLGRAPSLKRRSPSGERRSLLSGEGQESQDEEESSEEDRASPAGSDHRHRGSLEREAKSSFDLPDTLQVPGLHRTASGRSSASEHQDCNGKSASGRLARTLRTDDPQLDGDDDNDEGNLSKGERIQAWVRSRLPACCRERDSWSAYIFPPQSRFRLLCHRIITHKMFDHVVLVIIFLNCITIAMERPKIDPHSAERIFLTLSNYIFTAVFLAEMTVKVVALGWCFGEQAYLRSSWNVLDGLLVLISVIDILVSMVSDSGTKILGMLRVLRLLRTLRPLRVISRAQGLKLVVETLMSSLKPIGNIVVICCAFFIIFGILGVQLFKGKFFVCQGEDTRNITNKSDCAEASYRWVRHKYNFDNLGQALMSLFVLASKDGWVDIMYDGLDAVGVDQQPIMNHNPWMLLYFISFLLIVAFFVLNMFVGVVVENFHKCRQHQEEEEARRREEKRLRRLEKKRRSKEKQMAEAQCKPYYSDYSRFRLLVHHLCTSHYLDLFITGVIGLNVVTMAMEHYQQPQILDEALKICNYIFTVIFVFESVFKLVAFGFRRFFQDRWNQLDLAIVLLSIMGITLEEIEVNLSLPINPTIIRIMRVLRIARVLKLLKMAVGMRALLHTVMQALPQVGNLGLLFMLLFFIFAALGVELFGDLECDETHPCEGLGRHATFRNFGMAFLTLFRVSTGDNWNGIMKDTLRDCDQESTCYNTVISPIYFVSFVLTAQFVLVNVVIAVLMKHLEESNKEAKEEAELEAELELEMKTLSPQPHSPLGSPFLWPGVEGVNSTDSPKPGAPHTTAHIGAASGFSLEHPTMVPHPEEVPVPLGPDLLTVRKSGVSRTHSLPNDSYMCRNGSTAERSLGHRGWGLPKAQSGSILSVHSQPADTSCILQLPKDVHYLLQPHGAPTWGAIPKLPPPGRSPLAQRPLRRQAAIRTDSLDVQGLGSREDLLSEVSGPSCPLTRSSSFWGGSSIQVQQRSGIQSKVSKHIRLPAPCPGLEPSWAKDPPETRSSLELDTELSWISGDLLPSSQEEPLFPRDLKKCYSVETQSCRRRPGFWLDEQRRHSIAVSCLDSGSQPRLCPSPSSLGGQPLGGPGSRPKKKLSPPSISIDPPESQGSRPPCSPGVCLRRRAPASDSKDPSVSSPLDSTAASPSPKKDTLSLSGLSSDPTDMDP

For Kurtoxin (from UniProt P58910), the Kd is 0.015 µM.
